From the DeepSol protein solubility set

Experiment: soluble on expression in E. coli; label from the status in PepcDB or PDB records

Row | Sequence | soluble on expression in E. coli
1 | MFSKLAHLQRFAVLSRGVHSSVASATSVATKKTVQGPPTSDDIFEREYKYGAHNYHPLPVALERGKGIYLWDVEGRKYFDFLSSISAVNQGHCHPKIVNALKSQVDKLTLTSRAFYNNVLGEYEEYITKLFNYHKVLPMNTGVEAGETACKLARKWGYTVKGIQKYKAKIVFAAGNFWGRTLSAISSSTDPTSYDGFGPFMPGFDIIPYNDLPALERALQDPNVAAFMVEPIQGEAGVVVPDPGYLMGVRELCTRHQVLFIADEIQTGLARTGRWLAVDYENVRPDIVLLGKALSGGLYPVSAVLCDDDIMLTIKPGEHGSTYGGNPLGCRVAIAALEVLEEENLAENADKLGIILRNELMKLPSDVVTAVRGKGLLNAIVIKETKDWDAWKVCLRLRDNGLLAKPTHGDIIRFAPPLVIKEDELRESIEIINKTILSF | soluble
2 | MSDWFQLDKEYMMSTYCRTKIAIERGEGCKLYDVDGKEYLDLFSGVGVNVLGYNHPKIVQTTMDQVTKSLHLPFHFLNPVAIEYAKKLVDCSLKNGKVFFTNSGTEATETTLKLIDKYRAITNEEREGIVVLKNSFHGRTLGALHFTRQESVYQNFPTTSIPVYEVERENIEQLEETIINENPIAILLEPVLGSGGIYPLSREYLHGVQNLCDKYNVILIVDEVQSGMGRTGKLFAYQNFNITPHIIQIGKGAGGGIPLGGIIVGEKLCDVFAPGDHGTTFAHSSMGTALGLTVLNTLLDDGLMQEAYEMSLYLNDKLQEIQKENSYYIEEVRHAGMMFGISLNDTNENVKKLQVELMEKGILVDVTQGNIIRLLPPYIITKEEIDTFITQFIFCIDKVAAVVSA | not soluble
3 | QGVRTFVDPFTFEDPNQAVREFAKEIDASCIKIEKVIGVGEFGEVCSGRLKVPGKREICVAIKTLKAGYTDKQRRDFLSEASIMGQFDHPNIIHLEGVVTKCKPVMIITEYMENGSLDAFLRKNDGRFTVIQLVGMLRGIGSGMKYLSDMSAVHRDLAARNILVNSNLVCKVSDFGMSRVLEDDPEAAYTTRGGKIPIRWTAPEAIAYRKFTSASDVWSYGIVMWEVMSYGERPYWDMSNQDVIKAIEEGYRLPPPMDCPIALHQLMLDCWQKERSDRPKFGQIVNMLDKLIRNPNSLKRTGSESS | soluble
4 | MGQGNDTSEVMLLDTGWEFSQSGTEKWMPATVPGTVHQDLISHELLPNPFYGMNEKKIQWVENEDWEYRTSFIVSEEQLNRDGIQLIFEGLDTYADVYLNGSLLLKADNMFVGYTLPVKSVLRKGENHLYIYFHSPIRQTLPQYASNGFNYPADNDHHEKHLSVFSRKAPYSYGWDWGIRMVTSGVWRPVTLRFYDIATISDYYVRQLSLTDENARLSNELIVNQIVPQKIPAEVRVNVSLNGTTVTEVKQQVTLQPGINHITLPAEVTNPVRWMPNGWGTPTLYDFSAQIACGDRIVAEQSHRIGLRTIRVVNEKDKDGESFYFEVNGIPMFAKGANYIPQDALLPNVTTERYQTLFRDMKEANMNMVRIWGGGTYENNLFYDLADENGILVWQDFMFACTPYPSDPTFLKRVEAEAVYNIRRLRNHASLAMWCGNNEILEALKYWGFEKKFTPEVYQGLMHGYDKLFRELLPSTVKEFDSDRFYVHSSPYLANWGRPESWGTGDSHNWGVWYGKKPFESLDTDLPRFMSEFGFQSFPEMKTIAAFAAPEDYQIESEVMNAHQKSSIGNSLIRTYMERDYIIPESFEDFVYVGLVLQGQGMRHGLEAHRRNRPYCMGTLYWQLNDSWPVVSWSSIDYYGNWKALHYQAKRAFAPVLINPIQQNDSLSVYLISDRLDTMEQMTLEMKVVDFDGKTLGKKIQVHSLEVPANTSKCVYRAKLDGWLTPEDCRRSFLKLILKDKSGHQVAESVHFFRKTKDLQLPPTSVSYQMKQTDGKCELTLFSSMLAKDIFIETPLQGARYSDNFFDLLPGERKKVIITSPRIKKGEELPVNIKHIRETYKEHHHHHH | soluble
5 | MKIFAVVVTYNRLALLKKVIDLLKRQTRQLDSIVIVNNGSTDGTKEWLEQEKNITLINQSNSGGAGGFETGVKYAYENEADWIWMMDDDVFPNIDCLEKLLGWTSISQCIQPRRYYSDDVEVNFEQWLDPITYSKFGYWQEKSFNNGKKFCAINVGCFEGMFVSKSIVNKIGFPDKRFFIAEDDTIYGFAASFYTNVILVSDAIMVRARRSSDRSVSPMYTYYACRNFHLVYESLNLLLDKKNRFLYIKYIYQFVHQIYLSIFLYDNKMKHLISVFRGFYDCFRKKNGATYLEHHHHHH | not soluble
6 | MALTFTQAVSKLTSKFPHLNLVEFNGVRYPTVIVCPIHGRVTCSTFKSMLDSKSGCPKCASYGVNSHKIPEDTIDKLSKNTVLEDTVTGETLTFPSRASAARSLGINPAAITDRIKGRVHTETLLAGRYKVHICTK | not soluble
7 | SAEKFDHLEEHLEKFVENIRQLGIIVSDFQPSSQAGLNQKLNFIVTGLQDIDKCRQQLHDITVPLEVFEYIDQGRNPQLYTKECLERALAKNEQVKGKIDTMKKFKSLLIQELSKVFPEDMAKYRSIRGEDHPPS | soluble
8 | MAHHHHHHMGCSGSKNASNPKDGAASKGGKDGKTTADRKVAWERIRCAIPRDKDAESKSRRIELFKRFDTNGTGKLGFREVLDGCYSVLKLDEFTTHLPDIVQRAFDKAKDLGNKVKGVGEEDLVEFLEFRLMLCYIYDIFELTVMFDTMDKDGSLLIELQEFKEALPKLKEWGVDITDATTVFNEIDTNGSGVVTFDEFSCWAVTKKLQVCGDPDGEGNGANEGDGANAGDGVPAAEGSA | soluble
9 | MARNNNQVKRDAAGRLFFLLDRQYRLVIQQVVALKPHVLAIAARQGMFVAKAYRFPVAAARHAWLLAALRKAGFSAAPAPMPIGRGGVVEAGGCYWLLTEYVAGARPISFAAWADAADGLHLLERYHTITANIASSKQEAMGLPRAQLYDKWRRRYEEFCRHLPVVETIMDKEDILFTLSWADYCLSTCREHAPELTADSAAIIHGDVASHNFLRTTTGQMYLIDYDAAALASPGLDYCQYANRLLPYIGWSYSTLARFAPLRRWLEKRWFLHALLFPADVFREWRSAAARRRPLVFDRKRRERFVRRLYAMLQ | not soluble
10 | VRIPALERGPGLKDLAIFSRQLATMLGAGLTLLQALAILERQTENRKFREILKQVRTDVEGGMAFSEALSKHKIFSRLYVNLVRAGETSGGLDLILDRLASFLEKELELRGKIRSA | soluble
11 | MGSDKIHHHHHHMKKKNTTPTPHDATFRQFLTQPDIARDFMELHLPAELRAICDLSTLKLESGSFVEDDLRQYFSDVLYSLKTTAGDGYIHVLVEHQSTPDKHMAFRLIRYAVAAMQRHLEAGHKKLPLVIPVLFYTGKRSPYPYSTRWLDEFDDTALADKLYSSAFPLVDVTVIPDDEIAGHRSMAALTLLQKHIHQRDLAELVDRLAPILLAGYLSSSQVISLVHYIVQAGETSDAEAFVRELAQRVPQHGDALMTIAQQLEQKGIEKGIQLGEQRGIEKGRSEGEREATLKIARTMLQNCIDRNTVMKMTGLTEDDLAQIRH | not soluble
12 | EVQLQQSGPELVKPGASVKISCKASGYSFTGHLLNWVKQSHGKNLEWIGLVHPHNGAITYNQKFKDKATLTVDRSSTTAYIELVRLTSNDSAVYYCAREDFRYHYSMDYWGQGTSVTVSSAKTTPPSVYPLAPVCGDTTGSSVTLGCLVKGYFPEPVTLTWNSGSLSSGVHTFPAVLQSDLYTLSSSVTVTSSTWPSQSVTCNVAHPASSTKVDKKIVPK | soluble
13 | MGSDKIHHHHHHMLKDKMIAKGAKYIQSIYQDPFIQGIIKGRLDHDVICHYLQADNIYLGKFADIYALCLAKSDNLRDKQFFLEQIDFTLNRELADGEGPHQALAAYTNRSYQDIIEKGVWYPSADHYIKHMYFHFYENGIAGALAAMSPCPWIYHQLAKKIIEENQFLNGNPFNNWITFYANDTVEELMENYFRMMDYYAQNLSKEKQADLVDAFVKSCQHERRFFQMAINQEKWED | not soluble
14 | MPLVQMKDILMKANQENYGVGAFSVTNMEMVMGAIKAAEELSSPLILQIAEVRLNHSPIHMIGPLMVAAAKQATVPVAVHFDHGMTFEKIQETLEIGFSSVMFDGSHYPLEENIQKTKEIVELAKQYGATVEAEIGRVGGSEDGSEDIEMLLTSTTEAKRFAEETDVDALAVAIGNAHGMYNGDPNLRLDRLQEINDVVHIPLVLHGGSGISPEDFKQCIQHGVRKINVATATFQNVITAVNNTVLNTPYSDYFTYHQDVIKAAYENVKSHMQIFGSENRA | not soluble
15 | MGSDKIHHHHHHMLVYPSGIDLSTSTLRYLSDLLRARRRERGTRWRRLTTDRQALLALAHLRCGHTYAQLAAGFGIGLATVYRYIVEAVEVLAALAPTLQQAMTFAANKAFVILDGTLLHIDRIAADRPYYSGKHKRHGMNVQVIADAFGRLLWASPALPGAVHDIKAARIHGIIEALTQAGIRTWADKGYQGAQGTIRVPYRGRWSTLPAGKRAVNSSHAKIRAVGEQANATLKSWRLLRKLRCSTTRITDIVKAVLALHLATAA | not soluble
16 | MSKFSLKLGSKTLKKNISKKTKKKNSLQKANLFDWDDAETASLSHKPQSKIKIQSIDKFDLDEESSSKKKLVIKLSENADTKKNDAPLVEYVTEKEYNEVPVEEFGDALLRGMGWESDSEQDSKGDKTQSRNKDVSNVSQIHPDGLGIGAKLNKAINVEEASFMPVVKIDKITGTKVDDDKKNKS | soluble
17 | MLSAKGPQMRAFTQRVAAFSTQLQIDPIPIVFVGKGTTPRQNSLLGPNDSQYPFQGDVSFAHKPLSIRQQVENSKIERVMDDTEHNLINLLSNTNIEVDRTHLAQLKEEAMEEIQANAADVEIELSAIEAPKLLKKEMKYLFPQMETQKMNNVTVFNLTQKSEFDMKAWSEAMEEEREKLTASFIMSANAICSTLHRFGYWADFIDPSSGRPYMGDYTNHTLFETNDAYKQMGFKIEDLGCCKVLQHACWGSNAFVGTIFTDAPVDGDAVRDILKKVTQEIDE | not soluble
18 | MRCPFCGAEDTSVVDSRISEEGARIRRRRRCVECEKRFTTYETVELRFPQVIKQDGNRVEFNREKLYTSFARALHKRPVPTGQVDAAIERILQKLLGSGVQEISSRTIGEWVMQELYSLDKVAYIRFASVYRSFEDVGDFQEVIREVQSSPQNGDGPSS | not soluble
19 | MKIYYLGPEGSYTEKAALKFAELTNLKITPAESIYSVFREVERGNYGVVPTENSIEGSVTLTLDLLLRFPVKIFGETSLEIKHALLGYDLSKIRVVLSHPQALAQCREFIQRMRWGVRETNSTAEAVKIVAESNDPTLAAIGSREAAEIYGLKVLAEDIQDYPNNKTRFILIGREDM | not soluble
20 | MATIKLKFRPSTVQGKAGTLCYQLCHRQENRQITTDMRIFPEWWNETKRELVAVPGNERVLTAYRKRAEKEMRDIREIIRELDCSGETYTLSEILNRYRSLPSEPGFLYYMKKEMETLWENGQYGTSRNYRRALNSFSAFLDGDDIPFSSLDSALACRYESWLWQQKVARNSSSFYMRILRAVYNKAVKQGLAVQTFPFREVYTGVARTSKRAVDEETIRKLQRLDLSGSPALALSRDMFVFSYCARGMAFVDMAYLKKEDVGGGRITYYRHKTGQYLTLRIEPCMVTILERYGRTCPESPYLFPILTDEQPELAYRQYRTGLNYHNRKLKRLGKLLGEPLPLSSYTPRHSWATAARNHDVPIAVISAGMGHSSERTTLIYLDSLDNAIIDNANEKILKGLNDTISM | not soluble
21 | MISNNTRRVYRISFSFFEQYCLEHNLQSLPADPRSIISFIGHQKELLQASTGMQLSKQTLTTRIAAIRFYHIQAGFPTPTEHPQVIRVMRGLSRNHHRLVQDYDQQPLEHHHHHH | not soluble
